The record followed here is US20220064674A1 (MILTENYI BIOTEC B V, published 2022).

In the assay the target is T1, CD62L (L-selectin) expressed on cells (human, UniProt P14151 39-372).
T1 construct: whole, on cells; also called HT1080-CD62L
T1 sequence: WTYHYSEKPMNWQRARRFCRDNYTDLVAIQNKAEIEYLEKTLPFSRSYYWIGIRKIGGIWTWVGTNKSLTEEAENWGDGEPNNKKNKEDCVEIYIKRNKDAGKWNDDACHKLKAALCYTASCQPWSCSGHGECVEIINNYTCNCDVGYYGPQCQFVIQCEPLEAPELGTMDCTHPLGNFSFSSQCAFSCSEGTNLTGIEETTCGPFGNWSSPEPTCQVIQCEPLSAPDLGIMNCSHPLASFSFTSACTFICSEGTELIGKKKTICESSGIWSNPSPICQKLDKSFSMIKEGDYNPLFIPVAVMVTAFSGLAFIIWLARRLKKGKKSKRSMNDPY
Briefly: competition and binding assay on PBMC, flow cytometry.

B1: CD62L specific antibody derived from the same clone (parental antibody) (antibody, V domains shown)
VH: EVKLVESGGGLVKPGGSLKLSCAASGFTFSSYAMSWVRQTPEKRLEWVASISSGGSTYYPDSVKGRFTISRDNARNILYLQMSSLRSEDTAMYYCARDDDGYYDYWGQGTTLTVSS
VL: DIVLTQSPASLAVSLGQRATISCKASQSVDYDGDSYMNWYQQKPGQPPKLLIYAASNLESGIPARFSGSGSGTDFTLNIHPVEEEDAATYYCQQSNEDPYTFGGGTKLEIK
For the molecule B1, the binding result is “binds”.
